B1: GST-hSMN (252-284) (domain or fragment, human, UniProt Q16637 252-284, looked up)
chain: DSLDDADALGSMLISWYMSGYHTGYYMGFRQNQ
notes: The N-terminal place of GST is read from the printed name only; also called human SMN; human-SMN only control; source: E. coli BL21(DE3), purified (NiNTA); not shown: GST, N-terminal, kept
B2: His6-MBP-zfSMNwt (natural protein, zebrafish, UniProt Q9W6S8 1-281, looked up)
chain: MANGAEDVVFCRGTGQSDDSDIWDDTALIKAYDKAVASFKNALKGEDGATPQENDNPGKKRKNNKKNKSRKRCNAAPDKEWQVGDSCYAFWSEDGNLYTATITSVDQEKGTCVVFYTDYGNEEEQNLSDLLTEPPDMDEDALKTANVKETESSTEESDRSFTPQKSGHAKHKSKSNFPMGPPSWFPSFPPGPPPPPPHFKKMDGRRGEGPGPSFPGWPPMIPLGPPMIPPPPPMSPDFGEDDEALGSMLISWYMSGYHTGYYMGLRQGRKEAAASKKSHRK
notes: Survival motor neuron protein (Smn), zebrafish, wild type; The order of the tags is read from the printed name only; also called zebrafish Smn; zebrafish-Smn only control; source: E. coli BL21(DE3), purified (NiNTA); not shown: His6, N-terminal, kept; MBP, N-terminal, kept

Experiments:
[1] = molecular target: the molecule itself; assay: SEC; Superdex 200 Increase 10/300 GL; purified fusion proteins run alone and as a mixture; fractions analysed by SDS-PAGE with Coomassie staining
His6-MBP-zfSMNwt = molecular target: B2; assay: as above; conditions: both partners purified

Binder | binding result [1] | binding result (His6-MBP-zfSMNwt)
B1 | binds | binds
B2 | binds | 
